Laboratory results: paper PMC7232441 (2020)

B1: CsTx-9 (protein)
chain: KDDKNCIPKHHECTNDKKNCCKKGLTKMKCKCFTVADAKGATSERCACDSSLLQKFGFTGLHIIKGLF
B2: CsTx-1 (protein)
chain: SCIPKHEECTNDKHNCCRKGLFKLKCQCSTFDDESGQPTERCACGRPMGHQAIETGLNIFRGLFKGKKKNKKTK

Biological target: T1, CsTx-13 (Cupiennius salei, UniProt P83919)
T1 chain 1: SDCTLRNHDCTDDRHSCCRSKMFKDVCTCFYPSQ
T1 chain 2: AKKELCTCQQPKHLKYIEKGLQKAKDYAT
Assay: microscale thermophoresis

Row | Binder | Kd
1 | B1 | 370 nM
2 | B2 | 430 nM
